Results: PMC4505335, “Selective targeting of PPARγ by the natural product chelerythrine with a unique binding mode and improved antidiabetic potency” (Scientific Reports, 2015)
Where no end group is shown, it is not given here. The star is where a group is joined. Biotin = O=C1N[C@H]2[C@H](CS[C@H]2CCCCC(=O)*)N1

T1: PPARγ (Homo sapiens, UniProt P37231)
T1 construct: gene PPARG; no SRC1 peptide; In-house His6-LBD 206-477 (E. coli) used for crystal and kinase assay
T1 sequence (P37231 234-505 limits assumed): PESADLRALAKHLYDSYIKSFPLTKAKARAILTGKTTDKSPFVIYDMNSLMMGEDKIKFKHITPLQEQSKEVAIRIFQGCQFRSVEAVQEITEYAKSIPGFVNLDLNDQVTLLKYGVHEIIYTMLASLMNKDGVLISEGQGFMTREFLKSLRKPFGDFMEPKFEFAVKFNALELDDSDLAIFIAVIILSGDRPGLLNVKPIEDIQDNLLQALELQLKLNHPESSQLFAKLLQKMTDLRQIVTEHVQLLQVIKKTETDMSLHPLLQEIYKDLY

T2: Human PPARγ LBD (residues 206–477) (human, UniProt P37231-2 206-477)
T2 construct: The tag is detected in the AlphaScreen (hexahistidine detection kit); also called NR1C3; source: E. coli BL21(DE3), purified (Ni HiTrap HP, SP-Sepharose); not shown: His6, N-terminal, kept
T2 sequence (looked up): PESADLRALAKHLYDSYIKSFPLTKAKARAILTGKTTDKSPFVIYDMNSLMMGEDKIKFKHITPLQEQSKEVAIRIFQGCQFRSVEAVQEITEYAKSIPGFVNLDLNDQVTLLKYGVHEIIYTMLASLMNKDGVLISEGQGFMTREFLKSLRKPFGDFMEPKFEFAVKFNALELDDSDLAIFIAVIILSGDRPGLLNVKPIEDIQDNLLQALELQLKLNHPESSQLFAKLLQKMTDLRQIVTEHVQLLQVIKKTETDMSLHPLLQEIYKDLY


What was measured:
PPARγ = target: T1, PPARγ; test: crystal structure at […] Å; Lantha TR-FRET competitive binding; AlphaScreen
[1] = target: T2, Human PPARγ LBD (residues 206–477); test: AlphaScreen or HTRF; hexahistidine detection kit; about 20–40 nmol/l His6-PPARγ LBD and 20 nmol/l biotinylated peptide, 5 μg/ml donor and acceptor beads; 50 mmol/l MOPS, 50 mmol/l NaF, 0.05 mmol/l CHAPS, 0.1 mg/ml BSA, pH 7.4; with chelerythrine (5 μmol/l, and dose curves); details: both partners purified
[2] = target: T2, Human PPARγ LBD (residues 206–477); test: AlphaScreen or HTRF; hexahistidine detection kit; about 20–40 nmol/l His6-PPARγ LBD and 20 nmol/l biotinylated peptide, 5 μg/ml donor and acceptor beads; 50 mmol/l MOPS, 50 mmol/l NaF, 0.05 mmol/l CHAPS, 0.1 mg/ml BSA, pH 7.4; with rosiglitazone (1 μmol/l, and dose curves); details: both partners purified

| binding result [2] | Molecule | further results |
| --- | --- | --- |
|  | COc1ccc2c(c[n+](C)c3c4cc5c(cc4ccc23)OCO5)c1OC [CHE, chelerythrine] | IC50 (PPARγ): 566 nM |
|  | Biotin-GHSFADPASNLGLEDIIRKALMGSF (second corepressor motif peptide from NCoR (nuclear receptor corepressor 1; not the gene NCOR2/SMRT); also called NCoR-2 corepressor) [NCoR-2, a corepressor peptide from NCoR, N-terminally biotinylated] | binding result [1]: binds |
| binds | Biotin-QEPVSPKKKENALLRYLLDKDDTKD [SRC2 coactivator peptide, N-terminally biotinylated] |  |
| binds | Biotin-SPSSHSSLTERHKILHRLLQEGSP [SRC1 coactivator peptide, N-terminally biotinylated] |  |
